The target of data set [1] is C. reinhardtii Bld12p N-terminal domain fragment (crN, residues 1-159) (C. reinhardtii). Kind of data set: ITC; dilution: crN at high concentration (1.0-1.6 mM) injected stepwise into buffer; 7°C; 12 mM HEPES pH 7, 100 mM NaCl, 0.7 mM βMe; dimer to monomers.
The target of data set [2] is C. reinhardtii Bld12p crN-6HR fragment with F145E (crN-6HR[F145E]) (C. reinhardtii). Kind of data set: AUC; sedimentation velocity, 20°C, 150 μM protein; 20 mM Tris-HCl pH 7.5, 150 mM NaCl, 2 mM TCEP, 1% glycerol.
For data set [3] the target is unchanged. Kind of data set: dilution series monitored by CD at 222 nm; 20°C, samples reduced with DTT; fit to a two-state association (monomer-dimer) model; dimer to monomers.
For data set [4] the target is unchanged. Kind of data set: SEC-MALS; S-200 analytical size exclusion column in line with light scattering and refractive index detectors; PBS with 1 mM DTT; samples of 2-4 mg/ml.
Data set [5] deals with the molecule itself. Kind of data set: crystal structure; X-ray crystallography; sitting drop vapor diffusion.
Data set [6] deals with the molecule itself. Kind of data set: AUC; sedimentation velocity, 20°C, 300 μM protein; 20 mM Tris-HCl pH 7.5, 150 mM NaCl, 2 mM TCEP, 1% glycerol.
Data set [7] deals with the molecule itself. Kind of data set: ITC; dilution: 1.6 mM ceN injected stepwise into buffer; 7°C; 20 mM sodium phosphate pH 7, 100 mM NaCl, 1 mM DTT; dimer to monomers.
Data set [8] deals with the molecule itself. Kind of data set: AUC; sedimentation velocity, 20°C, 200 μM protein; 20 mM Tris-HCl pH 7.5, 150 mM NaCl, 2 mM TCEP, 1% glycerol.
Data set [9] concerns the molecule itself. Kind of data set: dilution series monitored by CD at 222 nm; 20°C, samples reduced with DTT; fit to a two-state association (monomer-dimer) model; dimer to monomers.
Data set [10] deals with the molecule itself. Kind of data set: SEC-MALS; S-200 analytical size exclusion column in line with light scattering and refractive index detectors; PBS with 1 mM DTT; samples of 2-4 mg/ml.

“C. reinhardtii Bld12p N-terminal domain fragment (crN, residues 1-159) (domain or fragment)”: the equilibrium dissociation constant (Kd) in data set [1] is 60 µM. In the case of “C. reinhardtii Bld12p crN-6HR fragment with F145E (crN-6HR[F145E]) (domain or fragment)”, the stoichiometry N in data set [2] and in [4] was 2 throughout. Besides, in [3], the Kd was 0.5 µM.

B1: C. elegans SAS-6 N-terminal domain fragment with S123E (ceN[S123E]) (domain or fragment, UniProt O62479 1-168, looked up)
chain: MTSKIALFDQTLIASLLQPLSLNQPDFKAYKTKVKLKISEQRNETSGEKELKFEISRSDDFEFLFSETLNNEKYQILARDHDLTVDFDAFPKVIIQHLLCKNIVKNLEEDGEVDARKKAGYHEIADPGKPTEINIILDAEKNFCSFELFSKTPISKGKIFSIKLHAVR
notes: SAS-6, C. elegans, Uniprot ID O62479, N-terminal domain, residues 1-168, Ser123 mutated to glutamate; The crystallised variant; Two molecules in the asymmetric unit; also called ceN variant; ceN-dimer; source: recombinant, purified, crystallised; preparation of the variant not described
Regarding B1, the binding result in data set [5] is “binds”.

B2: C. elegans SAS-6 N-terminal domain fragment (ceN, residues 1-168) (domain or fragment, UniProt O62479 1-168, looked up)
chain: MTSKIALFDQTLIASLLQPLSLNQPDFKAYKTKVKLKISEQRNETSGEKELKFEISRSDDFEFLFSETLNNEKYQILARDHDLTVDFDAFPKVIIQHLLCKNIVKNLEEDGEVDARKKAGYHSIADPGKPTEINIILDAEKNFCSFELFSKTPISKGKIFSIKLHAVR
notes: SAS-6, C. elegans, Uniprot ID O62479, N-terminal domain, residues 1-168; Cloned in a modified pET15b vector; His6-tag removed by thrombin; source: E. coli BL21 gold (DE3), purified (Ni-NTA, size exclusion chromatography); not shown: His6, N-terminal, cleaved
Turning to B2, the “stoichiometry N” value in data set [6] was found to be 2. This molecule showed a Kd in data set [7] of around 110 µM.

B3: C. elegans SAS-6 N terminus plus coiled coil fragment (ceN-CC, residues 1-414) (domain or fragment, UniProt O62479 1-414, looked up)
chain: MTSKIALFDQTLIASLLQPLSLNQPDFKAYKTKVKLKISEQRNETSGEKELKFEISRSDDFEFLFSETLNNEKYQILARDHDLTVDFDAFPKVIIQHLLCKNIVKNLEEDGEVDARKKAGYHSIADPGKPTEINIILDAEKNFCSFELFSKTPISKGKIFSIKLHAVRGDHLISHLLKICSSQAVKLSTFYKSADELASLRQKCGDLEKQVEKLSGVKEEFEEMSEKFKELEDEVELVKEERENIRLLVEDKEDEVADLKQDTESLQKQLEENQEELEIVGNMLREEQGKVDQLQKRNVAHQKEIGKLRAELGTAQRNLEKADQLLKRNSQQQNQQSLDMRKLGELEADLKEKDSMVESLTETIGILRKELENEKLKAAENMDSFEKLSMENENLKEKIAHYRAQRFSPAPSGL
notes: SAS-6, C. elegans, Uniprot ID O62479, N terminus plus coiled coil, residues 1-414; A His6 form from pET30a was used for electron microscopy only; source: E. coli BL21 gold (DE3), purified (glutathione sepharose, eluted by prescission protease, dialysis); not shown: GST, N-terminal, cleaved
Take B3: the binding result in data set [8] is listed as “binds”.

B4: C. elegans SAS-6 N terminus plus coiled coil fragment with I154E (ceN-CC[I154E]) (domain or fragment, UniProt O62479 1-414, looked up)
chain: MTSKIALFDQTLIASLLQPLSLNQPDFKAYKTKVKLKISEQRNETSGEKELKFEISRSDDFEFLFSETLNNEKYQILARDHDLTVDFDAFPKVIIQHLLCKNIVKNLEEDGEVDARKKAGYHSIADPGKPTEINIILDAEKNFCSFELFSKTPESKGKIFSIKLHAVRGDHLISHLLKICSSQAVKLSTFYKSADELASLRQKCGDLEKQVEKLSGVKEEFEEMSEKFKELEDEVELVKEERENIRLLVEDKEDEVADLKQDTESLQKQLEENQEELEIVGNMLREEQGKVDQLQKRNVAHQKEIGKLRAELGTAQRNLEKADQLLKRNSQQQNQQSLDMRKLGELEADLKEKDSMVESLTETIGILRKELENEKLKAAENMDSFEKLSMENENLKEKIAHYRAQRFSPAPSGL
notes: SAS-6, C. elegans, Uniprot ID O62479, residues 1-414, I154 exchanged by glutamate; source: preparation of the mutant not described
Regarding B4, the “stoichiometry N” value in [8] turned out to be 2.

B5: C. elegans SAS-6 coiled-coil domain fragment (ceCC, residues 181-408) (domain or fragment, UniProt O62479 181-408, looked up)
chain: SSQAVKLSTFYKSADELASLRQKCGDLEKQVEKLSGVKEEFEEMSEKFKELEDEVELVKEERENIRLLVEDKEDEVADLKQDTESLQKQLEENQEELEIVGNMLREEQGKVDQLQKRNVAHQKEIGKLRAELGTAQRNLEKADQLLKRNSQQQNQQSLDMRKLGELEADLKEKDSMVESLTETIGILRKELENEKLKAAENMDSFEKLSMENENLKEKIAHYRAQRFS
notes: SAS-6, C. elegans, Uniprot ID O62479, coiled coil, residues 181-408; Cloned in pET15b; His6-tag removed by thrombin; Monomer mass 27.4 kDa as printed; also called SAS-6 ceCC; source: recombinant, bacteria; not shown: His6, N-terminal, cleaved
In data set [9], B5 returned a Kd of 0.9 ± 0.1 µM. Also, in data set [10], the “stoichiometry N” value turned out to be 2.

These data come from article PMC3089914, “Structural Basis of the 9-Fold Symmetry of Centrioles” (Cell, 2011).
